Experiments:
[1] = system: CD70^− Jurkat cells; experiment: 3H-TdR proliferation assay, hematologic lines; type: cell-based, human; conditions: at concentrations as high as 2 μg/ml
Method: (§1) FIG. 5: Effects of anti-CD70 ADCs on the proliferation of transformed hematologic cell lines. A subset of the CD70^+ cell lines shown in FIG. 4 and the CD70^− Jurkat cell line were tested for their sensitivity toward 1F6 ADCs. Graded doses of the 1F6-vcMMAE, 1F6-vcAFP, or the corresponding non-binding control IgG (IgG) ADCs were added to cells at the initiation of culture. Cells were exposed to the ADCs continuously for a total of 96 hours. Proliferation was determined by pulsing with ^3H-TdR during the last 16 hours of incubation. The upper panels show the response of the WSU-NHL and Jurkat lines. The lower panel summaries the responses by the tested cell lines to 1F6-vcMMAE and 1F6-vcAFP in form of IC50s.
(§2) A subset of the CD70^+ hematologic lines listed in FIG. 4 was tested for sensitivity to the 1F6 ADCs. These lines were seeded at 5,000 cells per well in 96-well plates in quadruplicates in a total of 200 μl of culture medium containing graded doses of the ADCs as indicated in the FIG. 5 and the accompanying figure legend. Proliferation assays were carried out for 96 hours. Tritiated thymidine (^3H-TdR) incorporation during the last 16 hours of incubation was used to assess DNA synthesis. The responses of a CD70^+ B lymphoma cell line WSU-NHL and the CD70^− Jurkat cells are shown in the upper panels of FIG. 5. […] Proliferation inhibitory effects were apparent when the ADCs were used at concentrations higher than 0.005 μg/ml. […] On the other hand, proliferation of the CD70^− Jurkat acute T leukemia cell line was not affected by either 1F6-vcMMAE or 1F6-vcAFP at concentrations as high as 2 μg/ml. […] The responses of other CD70^+ cell lines tested are summarized in the lower panel of FIG. 5. […] Moreover, EBV-LCLs are phenotypically very similar to activated normal B cells.

[2] = system: WSU-NHL cells; experiment: 3H-TdR proliferation assay, hematologic lines; type: cell-based, human; conditions: 96 hours, 3H-TdR last 16 hours
Method: as §1, §2

[3] = system: Caki-1 cells; experiment: 3H-TdR proliferation assay, RCC lines; type: cell-based, human; conditions: Caki-1 cells
[4] = system: Caki-2 cells; experiment: 3H-TdR proliferation assay, RCC lines; type: cell-based, human
[5] = system: CD70^+ RCC lines; experiment: 3H-TdR proliferation assay, panel of RCC lines; type: cell-based, human
[6] = system: CD70^− Hs 835.T cells; experiment: 3H-TdR proliferation assay, CD70-negative RCC line; type: cell-based, human; conditions: CD70^− Hs 835.T cells
[7] = system: normal kidney epithelial lines RPTEC and HRCE; experiment: Proliferation/cytotoxicity on normal kidney epithelial lines; type: cell-based, human
[8] = system: PBMCs stimulated with irradiated allogeneic CESS cells; experiment: Mixed lymphocyte reaction (3H-TdR); type: cell-based, human; conditions: MLR, 5-day culture
[9] = system: CD70^+ CD8^+/Vβ17^+ T cells; experiment: In vitro deletion of M1 peptide-specific T cells (flow cytometry, viable counts); type: cell-based, human
Method: PBMCs from a normal HLA-A0201donor were stimulated with the M1 peptide for 5 days. 1F6 ADCs or control non-binding IgG (cIgG) ADCs were added to cells to a final concentration of 1 μg/ml. Total viable cell counts were conducted at 24, 48, and 76 hours post drug addition. Total numbers of CD8^+/Vβ17^+ for each culture condition are calculated (upper panel).
FIG. 19: Dose-response comparison of anti-CD70 ADCs on deletion of antigen-specific CD8^+/Vβ17^+ cells. PBMCs from a normal HLA-A0201donor were stimulated with the M1 peptide for 5 days. 1F6 ADCs or control non-binding IgG (cIgG) ADCs were given to cells to the specified final concentrations. The percentages of CD8^+/Vβ17^+ cells 4 days post ADC addition was determined by flow cytometry as in FIG. 17.
To examine CD70 expression on activated antigen-specific T cells, PBMCs from a normal donor expressing HLA-A0201 were stimulated with the M1 peptide. PBMCs were seeded at 2×10^6 cells/ml with 5 μg/ml of M1 peptide in AIMV medium supplemented with 5% human AB serum. IL-2 (Proleukin, Chiron) and IL-15 (R&D Systems, MN) were added to final concentrations of 20 IU/ml and 5 ng/ml, respectively, once every two days beginning on day 2 after culture initiation. The expansion of CD8^+/Vβ17^+ T cells and induction of CD70 on the CD8^+/Vβ17^+ was followed by three-color flow cytometry. Vβ17^+ T cells were identified by the anti-TCRVβ17 mAb clone E17.5F3 (Beckman Coulter, Miami, Fla.).
PBMCs from a normal donor expressing HLA-A0201 were stimulated with the M1 peptide as described in Example 11. On day 5, cells were harvested, washed, and re-seeded at 0.5-1×10^6 cells/ml (approximately 100,000 of CD8^+/Vβ17^+ T cells) in fresh AIMV medium supplemented with 5% human AB, 20 IU/ml of IL-2, and 5 ng/ml of IL-15. 1F6 or control non-binding IgG (cIgG) ADCs were added to some cultures to a final concentration of 1 μg/ml. Total viable cell counts were conducted 24, 48, and 76 hours after ADC addition. Two-color flow cytometry was conducted to determine the percentages of CD8^+/Vβ17^+ cells among the viable cells. The absolute number of CD8^+/Vβ17^+ T cells in each culture was then calculated. […] The effects of 1F6 ADCs on the CD8^+/Vβ17^− cells were also evaluated.
The potency of three 1F6 ADCs was then compared. HLA-A0201 PBMCs were stimulated with the M1 peptide and re-seeded as described for FIG. 18 with the various ADCs at the indicated concentrations (FIG. 19). The percent of CD8^+/Vβ17^+ T cells after a 96-hour incubation was determined.

[10] = system: Caki-1 tumors; experiment: Caki-1 subcutaneous xenograft model of RCC; type: in vivo, nude mice; conditions: Caki-1 xenograft, q4d×4
Excerpt: Tumors were initiated in nude mice by implanting tissue tumor blocks (30 mm^3 in size) containing Caki-1 cells. Treatment began when average tumor size within a treatment group was around 100 mm^3. In the upper panel, treatment for the IgG and 1F6 groups began 17 days post implantation (filled arrow), while treatment for the 1F6-vcAFP and IgG-vcAFP groups began 25 days post implantation (open arrow). Indicated doses of either unconjugated mAbs or their ADCs were given for one course on a q4d×4 schedule.
Using xenografts of the Caki-1 line in nude mice, the […] antitumor activity of 1F6-vcAFP was tested. To establish Caki-1 tumors, nude mice were injected subcutaneously with 5×10^6 Caki-1 cells in 0.2 ml PBS. […] Caki-1-containing tumors were excised from tumor bearing mice and tumor tissue blocks of approximately 30 mm^3 were prepared. Naive nude mice to be used for evaluating in vivo antitumor activity of anti-CD70 ADC were each implanted subcutaneously with one tumor block of 30 mm^3. […] Treatment was initiated when the average tumor size within a group was approximately 100 mm^3 (FIG. 12, arrows).

[11] = system: tetanus toxoid-specific T cells; type: cell-based, human
[12] = system: CD70^+ RCC lines; conditions: in 5 of 7 CD70^+ RCC lines tested
Method: To examine the responses of CD70^+ RCC lines to 1F6 ADCs, cells were seeded between 1,000 to 3,000 cells per well in 100 μl of medium. An additional 100 μl of culture medium containing graded doses of ADCs were added to the wells after cells were allowed to attached overnight. In addition to DNA synthesis, cell viability, as a reflection of the cytotoxic activities of ADCs, was also assayed by the reduction of alamarBlue™ (Biosource International, Camarillo, Calif.). The alamarBlue™ dye was added at a one to four dilution during the last 4 to 24 hours of the incubation. Dye reduction was assessed by fluorescence spectrometry using the excitation and emission wavelengths of 535 nm and 590 nm, respectively. For analysis, the amount of ^3H-TdR incorporated or the extent of alamarBlue™ reduction by the treated cells was compared to that of the untreated control cells.

[13] = system: Vβ17^− T cells; experiment: Anti-CD3 plus anti-CD28 re-stimulation assay of bystander T cells (3H-TdR); type: cell-based, human; conditions: Vβ17^− T cells from culture treated with 1 μg/ml, 96 hours, no exogenous IL-2
Excerpt: PBMCs from a normal HLA-A0201donor were stimulated with the M1 peptide for 5 days.

[14] = system: CD70-expressing multiple myeloma cells; experiment: Cytotoxic activity against multiple myeloma cell lines (panel); type: cell-based, human
Method: Cell surface CD70 expression was evaluated in a panel of multiple myeloma cell lines (Table 3). Copy number of CD70 molecules expressed by each cell line was determined by quantitative flow cytometry using the QIFIKit® (Dako, Carpinteria, Calif.). Response of these cells to anti-CD70 ADC-mediated cytotoxicity was determined.

[15] = system: Hodgkin's disease cell lines; experiment: Cytotoxic activity against Hodgkin's disease cell lines (panel); type: cell-based, human
Method: Cell surface CD70 expression was also evaluated in panels of Hodgkin's disease (Table 4) and glioblastoma cell lines (Table 5). The copy number of CD70 molecules expressed by each cell line was determined by quantitative flow cytometry using the QIFIKit® (Dako, Carpinteria, Calif.). The response of these cells to anti-CD70 ADC-mediated cytotoxicity was determined.

B1: 1F6-vcMMAE: anti-CD70 mAb 1F6 linked to monomethyl auristatin E by the valine-citrulline (vc) dipeptide linker (conjugate)
VH: QIQLVQSGPEVKKPGETVKISCKASGYTFTNYGMNWVKQAPGKGLKWMGWINTYTGEPTYADAFKGRFAFSLETSASTAYLQINNLKNEDTATYFCARDYGDYGMDYWGQGTSVTVSS
VL: DIVLTQSPASLAVSLGQRATISCRASKSVSTSGYSFMHWYQQKPGQPPKLLIYLASNLESGVPARFSGSGSGTDFTLNIHPVEEEDAATYYCQHSREVPWTFGGGTKLEIKR
modifications: non-natural residues
notes: anti-CD70 mAb 1F6 linked to monomethyl auristatin E by the valine-citrulline (vc) dipeptide linker
[1]
  effect on proliferation of Jurkat cells: not affected
[2]
  effect on the proliferation of WSU-NHL cells: dose-dependent inhibitory effects
[3]
  IC50, proliferation: lower than 20 ng/ml
[4]
  IC50, proliferation: lower than 20 ng/ml
[5]; other CD70^+ RCC lines (not Caki-1, Caki-2)
  activity on proliferation: not active
[6]
  activity on proliferation: not active
[7]
  activity on proliferation: not active
[8]
  effect on T cell proliferation: substantially inhibited T cell proliferation
[9]; 1 μg/ml, 76 hours after ADC addition
  number of CD8^+/Vβ17^+ T cells: approximately 400,000
[9]; 96-hour incubation
  inhibition of CD8^+/Vβ17^+ T cell expansion: dose-dependent inhibition
  relative inhibitory activity: weaker than both 1F6-vcAFP and 1F6-vcMMAF

B2: 1F6: anti-human CD70 monoclonal antibody obtained from the Central Laboratory of the Netherlands Red Cross Blood Transfusion Service (antibody, V domains shown)
VH: B1 VH
VL: B1 VL
modifications: Mature 1F6 Heavy Chain Variable region from Figure 1; Mature 1F6 Light Chain Variable Region from Figure 1
notes: anti-human CD70 monoclonal antibody obtained from the Central Laboratory of the Netherlands Red Cross Blood Transfusion Service
[10]
  therapeutic activity / tumor growth: Very little therapeutic activity
[11]
  effect on tetanus toxoid-induced T cell proliferation: did not show a significant effect

B3: 1F6-vcMMAF: anti-CD70 mAb 1F6 linked to monomethyl auristatin phenylalanine by the valine-citrulline (vc) dipeptide linker (conjugate)
VH: B1 VH
VL: B1 VL
modifications: non-natural residues
notes: anti-CD70 mAb 1F6 linked to monomethyl auristatin phenylalanine by the valine-citrulline (vc) dipeptide linker
[5]; CD70^+ RCC lines tested
  IC50 values for proliferation inhibition: lower than 30 ng/ml
[12]
  IC50 values to induce cytotoxicity: lower than 30 ng/ml
[9]; 1 μg/ml added on day 5, 4 days, untreated 47%
  CD8^+/Vβ17^+ T cells in the culture: 14%
[9]; 96-hour incubation
  inhibition of CD8^+/Vβ17^+ T cell expansion: dose-dependent inhibition
[13]
  response to anti-CD3 plus anti-CD28 re-stimulation: comparable to that of the untreated cells

B4: c1F6-vcMMAF4: chimeric 1F6 (c1F6)-vcMMAF4 anti-CD70 ADC (conjugate)
VH: B1 VH
VL: B1 VL
modifications: non-natural residues
notes: chimeric 1F6 (c1F6)-vcMMAF4 anti-CD70 ADC
[14]
  IC50 values, range over the panel: 1.2 to 160 ng/mL
[15]
  IC50 values, range over the panel: 0.41 to 42 ng/mL
